Numbering of substitutions follows the chain as printed.
B1: Ma16B06 (VHH)
VHH: QVQLVESGGGLVRTGGSLRLSCAASGSILQIWAMKWYRQAPGLQREWIATIPNSGEPFYASSVEGRFTGSRENEETVYLYLNNLEPEDTAVYYCEVNEGVPVREYWGQGTQVTVSS
notes: Monomeric VHH; also called VHH Ma16B06
B2: Ma28D01 (VHH)
VHH: QVQLVESGGGLVQPGGSLRLSCVVSELGLDYYQIGWFRQAPGKEREGVSCFRSSDEIRYYADSVKGRFTTFRDNAGTTVYLQMNSLKPEDTGVYYCAVAPQTYYHGTWYGECAAAGMDSWGKGTQVTVSS
notes: Monomeric VHH
B3: Ma28F04 (VHH)
VHH: B2 VHH with E26D, S63P, Q125L
notes: Monomeric VHH
B4: Ma28H11 (VHH)
VHH: QVQLVESGGGLVQPGGSLRLSCATSGLTLDHYAIGWFLQAPGKEREGVACVSDDERSLYAPSVMGRFSISRDNAKKTFYLEMNSLKPEDTGVYYCASGPVVPGTLCRIPTVLGYDDWGQGTQVTVSS
notes: Monomeric VHH; also called M28H11

Assays:
[1] = molecular target: SARS-CoV-2 Omicron BA.1 RBD (Omicron_BA.1_RBD-AviHis) (SARS-CoV-2 (Omicron BA.1 variant)); assay: BLI, biotinylated RBD, mass transport model fit
[2] = molecular target: SARS-CoV-2 Omicron BA.5 RBD (Omicron_BA.5_RBD-AviHis) (SARS-CoV-2 (Omicron BA.5 variant)); assay: BLI, biotinylated RBD, mass transport model fit
[3] = molecular target: SARS-CoV-2 Omicron BA.2.75 RBD (Omicron_BA.2.75_RBD-AviHis) (SARS-CoV-2 (Omicron BA.2.75 variant)); assay: BLI, biotinylated RBD, mass transport model fit
[4] = molecular target: T1, SARS-CoV-2 Delta RBD (Delta_RBD-Avi-His) (SARS-CoV-2 (Delta variant)); assay: BLI, biotinylated RBD
[5] = molecular target: SARS-CoV-2 Delta variant spike protein (SARS-CoV-2 (Delta variant)); assay: cell-based or functional assay
[6] = molecular target: SARS-CoV-2 Omicron BA.1 variant spike protein (SARS-CoV-2 (Omicron BA.1 variant)); assay: cell-based or functional assay
[7] = molecular target: T1, SARS-CoV-2 Delta RBD (Delta_RBD-Avi-His); assay: BLI, biotinylated RBD, mass transport model fit

Binder | Kd [1] | Kd [2] | Kd [3] | binding result [4] | Lowest virus neutralizing concentration (pM; IC99) [5] | Lowest virus neutralizing concentration (pM; IC99) [6] | Kd [7]
B1 | 0.04 nM | 20 nM | 0.06 nM | no binding | > 5000 pM | 50 pM | –
B2 | 0.2 nM | 0.03 nM | 0.3 nM | – | – | 1700 pM | 0.015 nM
B3 | 0.15 nM | 0.03 nM | 0.2 nM | – | 500 pM | 500 pM | 0.03 nM
B4 | 30 nM | 0.3 nM | 0.6 nM | – | 50 pM | > 5000 pM | 0.03 nM

From patent publication EP4375293A1 (Max-Planck-Gesellschaft zur Förderung der Wissenschaften …, dated 2024)
